According to publication PMC9763423:

Biological target: JOSD1 (UniProt Q15040)
Assay: co-immunoprecipitation, immunoblot
Details: reference: Flag-MCL1 WT; sites S159

For “MCL-1 (from UniProt Q07820) Flag-MCL1 S159A”, the “binding against the reference” value was “stronger”.
